This passage reports stoichiometry N results from publication doi:10.1101/2024.12.20.629533.

The assay has as its target VgrS (residues 81-729), Salmonella Typhimurium VgrG (Salmonella enterica serovar Typhimurium). The assay can be described thus: crystal structure.

For “VgrS (residues 81-729), Salmonella Typhimurium VgrG (domain or fragment)”, the stoichiometry N – broadly, a count of units in the complex or per binding partner – was found to be 3.
